Source: PMC12884772, “Macrophagic Sclerostin Loop2‐ApoER2 Interaction Required by Sclerostin for Cardiovascular Protective Action” (Advanced Science, 2025)

Columns and labels:
[1] = biological target: full-length His-sclerostin (not stated (recombinant human and mouse sclerostin used in the paper)) (UniProt Q99P68); test: BLI; Octet RED96e; Figure 6B, 'ApoER2 to sclerostin' and 'to sclerostin loop2'; the methods tell of biotin-ApoER2 loaded on streptavidin biosensors, PBS with 0.02% Tween 20; partner loaded in this panel not given
[2] = biological target: His-sclerostin loop2; test: as above
[3] = biological target: ApoER2 protein (R&D, 3520-AR) (UniProt Q14114); test: BLI; Octet RED96e; Figure S6B, 'sclerostin to ApoER2'; partner loaded in this panel not given
Chain of ApoER2 protein (R&D, 3520-AR) (Q14114 42-826): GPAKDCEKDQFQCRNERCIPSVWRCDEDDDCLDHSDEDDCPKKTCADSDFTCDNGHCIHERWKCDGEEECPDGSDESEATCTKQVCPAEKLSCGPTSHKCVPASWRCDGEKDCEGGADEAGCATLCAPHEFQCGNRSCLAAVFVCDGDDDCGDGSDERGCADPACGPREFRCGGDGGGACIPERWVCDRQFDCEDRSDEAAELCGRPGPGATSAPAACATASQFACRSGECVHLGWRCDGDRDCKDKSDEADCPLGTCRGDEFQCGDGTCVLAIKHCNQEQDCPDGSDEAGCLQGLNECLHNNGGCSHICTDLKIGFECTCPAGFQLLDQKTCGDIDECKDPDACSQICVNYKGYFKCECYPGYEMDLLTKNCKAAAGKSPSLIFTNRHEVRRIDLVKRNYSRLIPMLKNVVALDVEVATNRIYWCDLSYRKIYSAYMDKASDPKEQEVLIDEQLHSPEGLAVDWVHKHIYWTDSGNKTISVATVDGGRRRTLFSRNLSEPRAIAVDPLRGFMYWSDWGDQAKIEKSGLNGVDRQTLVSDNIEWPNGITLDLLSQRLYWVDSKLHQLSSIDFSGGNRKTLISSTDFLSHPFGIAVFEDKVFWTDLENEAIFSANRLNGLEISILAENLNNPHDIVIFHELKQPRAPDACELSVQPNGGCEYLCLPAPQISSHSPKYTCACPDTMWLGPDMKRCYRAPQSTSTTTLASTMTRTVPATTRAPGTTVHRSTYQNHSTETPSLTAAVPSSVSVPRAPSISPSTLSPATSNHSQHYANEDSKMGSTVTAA

Chain of full-length His-sclerostin (Q99P68 24-211): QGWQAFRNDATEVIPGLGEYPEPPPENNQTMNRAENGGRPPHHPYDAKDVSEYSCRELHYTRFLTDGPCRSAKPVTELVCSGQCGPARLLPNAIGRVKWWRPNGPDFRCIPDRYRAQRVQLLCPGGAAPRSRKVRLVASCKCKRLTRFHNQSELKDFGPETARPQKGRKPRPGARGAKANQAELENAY
Chain of full-length His-sclerostin (not stated (recombinant human and mouse sclerostin used in the paper)) (Q99P68 24-211): as above

Kd [1] [nM] | Kd [2] [nM] | Kd [3] [nM] | Substance
3.8 | 23 |  | ApoER2 protein (R&D, 3520-AR) (from UniProt Q14114 42-826) (receptor)
 |  | 2.1 | full-length His-sclerostin (from UniProt Q99P68 24-211) (natural protein)
